In publication PMC3808355:

tested on: ProQ (Escherichia coli (BW25113-derived; ASKA pCA24N clone or pMCSG7 clone)); assay: tryptophan fluorescence titration; conditions: 20 nM ProQ, excitation 295 nm, emission 355 nm, buffer, salt, pH and temperature not in the material

Point of comparison: proP P2 mRNA, Kd 11.6 nM. Against it:
- proP P1 mRNA — within 1.5-fold, 17 nM
- rpoS mRNA — 1.7-fold higher, 19.5 nM
